Key:
[1] = molecular target: human LAG3-Fc, R&D Systems #2319-L3 (human) (UniProt P18627); experiment: SPR (Biacore), antibody captured on anti-Flag chip, human LAG3-Fc analyte, 25 C, 1:1 fit
[2] = molecular target: HIS-tagged (ACRO) or biotinylated recombinant human LAG3 protein (human) (UniProt P18627); experiment: FACS competition: antibody inhibits rhLAG3 binding to MHCII on DAUDI cells
Sequence of HIS-tagged (ACRO) or biotinylated recombinant human LAG3 protein (human) (P18627 23-450 limits assumed): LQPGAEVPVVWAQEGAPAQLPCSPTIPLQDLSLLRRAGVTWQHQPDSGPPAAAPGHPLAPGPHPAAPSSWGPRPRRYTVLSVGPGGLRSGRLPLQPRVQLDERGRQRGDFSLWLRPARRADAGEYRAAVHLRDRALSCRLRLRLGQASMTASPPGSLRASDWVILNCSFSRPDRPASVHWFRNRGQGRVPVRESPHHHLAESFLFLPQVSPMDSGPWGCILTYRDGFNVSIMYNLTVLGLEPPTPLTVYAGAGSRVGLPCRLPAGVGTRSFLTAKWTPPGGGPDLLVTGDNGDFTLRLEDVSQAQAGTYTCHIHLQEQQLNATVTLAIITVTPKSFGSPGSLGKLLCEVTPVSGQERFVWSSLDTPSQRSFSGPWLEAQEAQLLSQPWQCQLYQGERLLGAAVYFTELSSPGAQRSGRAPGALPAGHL

Sequence of human LAG3-Fc, R&D Systems #2319-L3 (human) (P18627 23-450): as the sequence (P18627 23-450 limits assumed) above

Kd [1]: 43.3 nM | koff [1]: 0.071 s⁻¹ | kon [1]: 1.64e+06 M⁻¹ s⁻¹ | IC50 [2]: 1.7 nM
B1: SRP1627-A02 (scFv, from a related filing, V domains shown, part only)
VH: QVQLVQSGAEVKKPGSSVKVSCKASGFNINDYFMHWVRQAPGQGLEWIARIDPWNGDTEYAPKFQGRVTITADESTSTAYMELSSLRSEDTAVYYCGMSDALDYWGQGTLVTVSS
VL: DVVMTQSPLSLPVTLGQPASISCKSSQSLLDSDGKTYLNWFQQRPGQSPRRLIYLVSKLDSGVPDRFSGSGSGTDFTLKISRVEAEDVGVYYCSHGNPVPQTFGQGTKVEIK

Source: patent US20190330336A1
